Measured values as given in US20190071514A1, “ANTI-CD39 ANTIBODIES” (INNATE PHARMA, priority 2016, published 2019).
Where a chain is given by its changes, count along the chain named. Names may count otherwise.

T1: human CD39 endogenously expressed on Ramos human lymphoma cells (human, UniProt P49961 1-510)
T1 sequence: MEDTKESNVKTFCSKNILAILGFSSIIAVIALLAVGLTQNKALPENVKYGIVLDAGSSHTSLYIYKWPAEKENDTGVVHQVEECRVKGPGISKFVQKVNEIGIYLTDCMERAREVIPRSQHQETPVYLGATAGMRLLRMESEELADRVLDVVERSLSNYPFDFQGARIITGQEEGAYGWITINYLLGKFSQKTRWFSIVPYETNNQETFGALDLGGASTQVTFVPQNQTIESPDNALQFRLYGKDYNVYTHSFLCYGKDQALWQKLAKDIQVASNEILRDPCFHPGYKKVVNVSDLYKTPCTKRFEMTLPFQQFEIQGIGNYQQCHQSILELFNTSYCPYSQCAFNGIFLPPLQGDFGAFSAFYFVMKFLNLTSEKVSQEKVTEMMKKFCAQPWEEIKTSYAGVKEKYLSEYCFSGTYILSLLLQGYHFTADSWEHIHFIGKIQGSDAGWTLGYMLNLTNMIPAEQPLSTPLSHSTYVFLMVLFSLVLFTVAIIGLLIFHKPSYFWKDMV

T2: Human CD39-L2 (human, UniProt O75354 61-484, limits assumed)
T2 construct: Recombinant protein coated on ELISA plates; also called NTPDase6; ENTPD6
T2 sequence: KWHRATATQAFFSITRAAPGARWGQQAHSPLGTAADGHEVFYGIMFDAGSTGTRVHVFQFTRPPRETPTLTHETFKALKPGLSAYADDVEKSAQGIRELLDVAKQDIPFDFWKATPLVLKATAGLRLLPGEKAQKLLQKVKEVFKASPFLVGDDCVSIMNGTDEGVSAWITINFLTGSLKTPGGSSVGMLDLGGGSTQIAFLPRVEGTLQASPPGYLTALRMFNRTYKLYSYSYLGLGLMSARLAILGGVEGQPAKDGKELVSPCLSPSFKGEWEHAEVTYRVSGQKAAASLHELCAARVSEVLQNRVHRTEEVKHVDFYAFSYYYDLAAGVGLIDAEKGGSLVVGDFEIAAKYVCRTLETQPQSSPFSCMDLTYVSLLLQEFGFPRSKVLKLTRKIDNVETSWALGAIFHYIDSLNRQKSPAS

T3: Human CD39-L4 (human, UniProt O75356 25-428)
T3 construct: Recombinant protein coated on ELISA plates; also called NTPDase5; ENTPD5
T3 sequence: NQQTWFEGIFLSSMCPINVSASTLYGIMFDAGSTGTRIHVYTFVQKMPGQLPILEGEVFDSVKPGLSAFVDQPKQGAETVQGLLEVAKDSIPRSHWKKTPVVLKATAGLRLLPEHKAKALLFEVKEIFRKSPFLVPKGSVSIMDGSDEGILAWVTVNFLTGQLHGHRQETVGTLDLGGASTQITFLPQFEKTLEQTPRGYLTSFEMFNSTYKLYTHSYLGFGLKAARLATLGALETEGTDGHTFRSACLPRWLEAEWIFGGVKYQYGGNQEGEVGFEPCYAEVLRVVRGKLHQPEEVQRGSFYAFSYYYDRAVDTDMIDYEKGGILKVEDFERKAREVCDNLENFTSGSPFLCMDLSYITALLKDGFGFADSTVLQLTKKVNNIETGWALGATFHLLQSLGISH

T4: Human CD39-L3 (human, UniProt O75355 44-485, limits assumed)
T4 construct: Recombinant protein coated on ELISA plates; also called NTPDase3; ENTPD3
T4 sequence: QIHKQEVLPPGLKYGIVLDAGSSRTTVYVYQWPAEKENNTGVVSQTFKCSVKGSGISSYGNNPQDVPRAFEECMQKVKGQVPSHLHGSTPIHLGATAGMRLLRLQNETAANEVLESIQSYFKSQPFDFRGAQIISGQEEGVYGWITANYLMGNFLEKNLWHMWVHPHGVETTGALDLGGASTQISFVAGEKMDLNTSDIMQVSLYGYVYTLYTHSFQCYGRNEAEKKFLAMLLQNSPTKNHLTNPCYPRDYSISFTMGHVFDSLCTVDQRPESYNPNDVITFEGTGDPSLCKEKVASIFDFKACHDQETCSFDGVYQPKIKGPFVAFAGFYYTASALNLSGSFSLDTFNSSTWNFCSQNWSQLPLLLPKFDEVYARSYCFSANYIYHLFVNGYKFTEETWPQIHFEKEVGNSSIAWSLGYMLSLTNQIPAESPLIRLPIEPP

B1: mAb3 (antibody, human IgG1, V domains shown)
VH: QVQLVQSGSELKKPGASVKVSCKASGYTFTHYGMNWVRQAPGKGLKWMGWINTYTGEPTYADDFKGRFVFSLDTSVSTAYLQISSLKAEDTAVYYCARRRYEGNYVFYYFDYWGQGTTVTVSS
VL: DIQMTQSPSSLSASVGDRVTITCRASENIYSYFSWYQQKPGKAPKLLIYTAKTLAEGVPSRFSGSGSGTDFTLTISSLQPEDFATYYCQHHYVTPYTFGGGTKVEIK
notes: Produced as Fc silent recombinant human IgG1 with heavy chain N297Q (Kabat EU numbering) and huCk constant domain; also called anti-CD39 antibody mAb3
B2: L234F/L235E/P331S: mAb2 variable regions as human IgG1 with L234F/L235E/P331S; heavy chain SEQ ID NO: 26, light chain SEQ ID NO: 9 (antibody)
heavy: QVQLVQSGSELKKPGASVKVSCKASGYTFTHYGMNWVRQAPGQGLKWMGWINTYTGEPTYADDFKGRFVFSLDTSVSTAYLQISSLKAEDTAVYYCARRRYEGNYVFYYFDYWGQGTTVTVSSASTKGPSVFPLAPSSKSTSGGTAALGCLVKDYFPEPVTVSWNSGALTSGVHTFPAVLQSSGLYSLSSVVTVPSSSLGTQTYICNVNHKPSNTKVDKRVEPKSCDKTHTCPPCPAPEFEGGPSVFLFPPKPKDTLMISRTPEVTCVVVDVSHEDPEVKFNWYVDGVEVHNAKTKPREEQYNSTYRVVSVLTVLHQDWLNGKEYKCKVSNKALPASIEKTISKAKGQPREPQVYTLPPSREEMTKNQVSLTCLVKGFYPSDIAVEWESNGQPENNYKTTPPVLDSDGSFFLYSKLTVDKSRWQQGNVFSCSVMHEALHNHYTQKSLSLSPGK
VL: B1 VL
modifications: Chimeric
B3: L234A/L235E/G237A/P331S: mAb2 variable regions as human IgG1 with L234A/L235E/G237A/P331S; heavy chain SEQ ID NO: 29, light chain SEQ ID NO: 9 (antibody)
heavy: B2 heavy with F240A, G243A
VL: B1 VL
modifications: Chimeric
B4: L234A/L235E/G237A/A330S/P331S: mAb2 variable regions as human IgG1 with L234A/L235E/G237A/A330S/P331S; heavy chain SEQ ID NO: 28, light chain SEQ ID NO: 9 (antibody)
heavy: B2 heavy with F240A, G243A, A336S
VL: B1 VL
modifications: Chimeric
B5: L234A/L235E/P331S: mAb2 variable regions as human IgG1 with L234A/L235E/P331S; heavy chain SEQ ID NO: 27, light chain SEQ ID NO: 9 (antibody)
heavy: B2 heavy with F240A
VL: B1 VL
modifications: Chimeric
B6: mAb2 (antibody, human IgG1, V domains shown)
VH: B1 VH with K43Q
VL: B1 VL
notes: Produced as Fc silent recombinant human IgG1 with heavy chain N297Q (Kabat EU numbering) and huCk constant domain; also called anti-CD39 antibody mAb2
B7: mAb4 (antibody, human IgG1, V domains shown)
VH: B1 VH with V2I, T74A
VL: B1 VL
notes: Produced as Fc silent recombinant human IgG1 with heavy chain N297Q (Kabat EU numbering) and huCk constant domain; also called anti-CD39 antibody mAb4
B8: mAb6 (antibody, human IgG1, V domains shown)
VH: B1 VH
VL: B1 VL with I48V
notes: Produced as Fc silent recombinant human IgG1 with heavy chain N297Q (Kabat EU numbering) and huCk constant domain; also called anti-CD39 antibody mAb6
B9: mAb5 (antibody, human IgG1, V domains shown)
VH: B1 VH with K43Q
VL: B1 VL with I48V
notes: Produced as Fc silent recombinant human IgG1 with heavy chain N297Q (Kabat EU numbering) and huCk constant domain; also called anti-CD39 antibody mAb5
B10: mAb1 (antibody, human IgG1, V domains shown)
VH: B1 VH with K43Q, K46E
VL: B1 VL
notes: Produced as Fc silent recombinant human IgG1 with heavy chain N297Q (Kabat EU numbering) and huCk constant domain; also called anti-CD39 antibody mAb1

Key:
[1] = molecular target: T1, human CD39 endogenously expressed on …; experiment: cell-based or functional assay
Human CD39-L2 = molecular target: T2, Human CD39-L2; experiment: ELISA, recombinant isoform coated, dose range of antibody
Procedure: (§1) Antibodies were tested for binding to recombinant human CD39 isoforms (Rec-huCD39 isoforms). The CD39 isoforms having amino acid sequences shown in the table below were coated in 96-well plate in PBS 1× at 500 ng/ml or 1 μg/ml at 4° C. overnight. Wells were washed in TBS Tween 20, and further saturated 2H at RT in TBS Blocking buffer (Thermo Fisher Scientific Inc.). Dose range concentration of primary antibody was incubated in TBS blocking buffer for 2 h at RT. Wells were washed in TBS Tween 20. […] Optical density was measured on Enspire at OD=450.

Human CD39-L4 = molecular target: T3, Human CD39-L4; experiment: as above
Procedure: as §1

Human CD39-L3 = molecular target: T4, Human CD39-L3; experiment: as above
Procedure: as §1

[2] = Thermal shift stability assay (TSSA), aggregation temperature; type: physicochemical; parameters: unit not given here; settings: for Tagg run1 / Tagg run2 / Tagg run3: mAb2 VH/Vk, human IgG1 Fc mutation formats, temperature of aggregation; for Tagg Mean: mean of run1-run3
Procedure: The resulting antibodies were tested for stability in the following reference formulation at a concentration of approximatively 7 mg/mL: pH 6.0; histidine buffer (10 mM); sucrose (200 mM); NaCl (50 mM); Polysorbate 80 (PS80) (0.2 g/L). […] So for this study the concentration is set at 0.2 g/L. The stability of the formulations was monitored in two storage conditions (at +5° C.±3° C. and at +40±3° C. For each study, 3 times point were performed: TO, T15D (15 days) and T1M (1 month). A freeze thaw (F/T) and a thermal shift stability assay (TSSA) were conducted for the format comparison. To perform F/T cycles, the samples were frozen at least 2 hours at −20° C. and thawed at least 1 hour at room temperature, the F/T cycle is repeated three times and samples are tested 24 h after the last Freeze/Thaw cycle. At each time point, the following tests were performed: • Particulate Matter (MFI) • Visual Inspection (Appearance) • Impurities (SE-HPLC) • Turbidity (400 nm) • Protein Concentration (280 nm) (performed with Nanodrop, Thermo Fisher Scientific Inc.)
These aromatic residues confer a relatively high predicted hydrophobicity to the antibody. However, the aromatic residues in these antibodies are believed to be important for antibody function and can probably not be replaced by a non-aromatic residue without a reduction or loss of activity. […] Aggregation temperature is correlated with the intrinsic stability. The higher the TAgg, the higher the stability of the protein. […] The stability of each of the Fc domain of human IgG1 isotype comprises an amino acid substitution at Kabat residue(s) 234, 235, 237, 330 and/or 331 (L234A/L235E/P331S substitutions, L234F/L235E/P331S substitutions, L234A/L235E/G237A/P331S substitutions, and L234A/L235E/G237A/A330S/P331S substitutions) improved the antibody, as shown in the table below. Such mutations can therefore enhance the pharmacological properties and/or activity of the antibody.

Row | Molecule | inhibition of CD39 enzymatic activity (AMP generated by Ramos cells, Maldi TOF) [1] | binding result (Human CD39-L2) | binding result (Human CD39-L4) | binding result (Human CD39-L3) | Tagg run1 [2] | Tagg run2 [2] | Tagg run3 [2] | Tagg Mean [2]
1 | B1 | ≥ 90% | no binding | no binding | no binding |  |  |  | 
2 | B2 |  |  |  |  | 67.65 | 67.87 | 68.34 | 68.0
3 | B3 |  |  |  |  | 66.08 | 66.55 | 66.29 | 66.3
4 | B4 |  |  |  |  | 66.35 | 67.58 | 67.07 | 67.0
5 | B5 |  |  |  |  | 66.50 | 66.91 | 67.77 | 67.1
6 | B6 | ≥ 90% | no binding | no binding | no binding |  |  |  | 
7 | B7 | ≥ 90% | no binding | no binding | no binding |  |  |  | 
8 | B8 | ≥ 90% | no binding | no binding | no binding |  |  |  | 
9 | B9 | ≥ 90% | no binding | no binding | no binding |  |  |  | 
10 | B10 | ≥ 90% | no binding | no binding | no binding |  |  |  | 
